First the molecules themselves.
B1: CPEB3 Ribozyme (parent)
chain: UAACAGGGGGCCACAGCAGAAGCGUUCACGUCGCAGCCCCUGUCAGAUUCUGGUGAAUCUGCGAAUUCUGCUGUAUAUCUC

This data set covers variants of B1. Nature of the data set: self-cleavage, relative activity (ratio to wild type); higher = more cleavage; in vitro, sequencing. The gist of the method:
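After error-prone PCR and barcoding, CPEB3 ribozyme mutant libraries were transcribed with T7 RNA polymerase at 37°C for 5 hours, then given 15 min with DNase I before an EDTA stop, and they cleaved during both steps. Reverse transcription with template switching preceded Illumina sequencing. Relative activity divides a variant's cleaved/total read fraction by the unmutated ribozyme's. At least 5 reads were required per variant, and three batches were averaged.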
With A47G U80A, the self-cleavage is 1.13.
Turning to A47G U80C, the self-cleavage was determined as 1.08.
As to A47U A65G, the self-cleavage was 0.35.
Regarding A47U A65U, the self-cleavage is 0.16.
For U48G U78C, the self-cleavage is 0.59.
As to A47C A75U, the self-cleavage was found to be 0.3.
On to U48C C62U, for which the self-cleavage amounted to 0.33.
As to U48C U49G, the self-cleavage turned out to be 0.29.
Turning to U48C U49A, the self-cleavage came to 0.48.
On to U48C U49C, for which the self-cleavage came to 0.32.
Take A47G C68U: the self-cleavage stood at 0.89.
On to A47G C68A, for which the self-cleavage is 0.43.
In the case of U48A U54A, the self-cleavage was determined as 0.43.
For U48A U54C, the self-cleavage turned out to be 0.39.
Take A47U U66A: the self-cleavage was found to be 0.26.
Then A47U U66C, with 0.36.
As for A47G U51C, the self-cleavage was 0.94.
Turning to A47G U51A, the self-cleavage is 0.98.
Turning to A47G U51G, the self-cleavage came to 0.79.
On to G46U U74A, for which the self-cleavage worked out at 0.46.
Regarding U48C C71U, the self-cleavage is 0.32.
Turning to U48C C71A, the self-cleavage worked out at 0.49.
In the case of U48A U74A, the self-cleavage was 0.98.
Then U48C G61C, with 0.18; and U48C G61A, with 0.33.
In the case of A47C A65U, the self-cleavage is 0.12.
Regarding U48A U51C, the self-cleavage stood at 0.44.
For the variant A47U U67C, the self-cleavage worked out at 0.3.
The result for A47U U67A reads 0.33; that for U48A A57G, 0.47; that for U48A A57U, 1.09.
Take A47G U60C: the self-cleavage amounted to 0.37.
As for A47G U60A, the self-cleavage was 0.41.
In the case of A47G U60G, the self-cleavage came to 0.41.
For U48A A64G, the self-cleavage amounted to 0.26.
For the variant U48A A64U, the self-cleavage stood at 0.14.
As to A47U U78C, the self-cleavage was 0.57.
With A47U U78A, the self-cleavage was determined as 0.7.
Regarding A47G U78C, the self-cleavage stood at 0.93.
Turning to A47G U78A, the self-cleavage worked out at 1.07.
Consider A47G U78G, for which the self-cleavage came out at 0.79.
With U49A A57G, the self-cleavage amounted to 0.5.
For the variant U49A A57U, the self-cleavage came to 0.4.
As to U48C U66C, the self-cleavage was 0.27.
For U48C U66A, the self-cleavage stood at 0.44.
For the variant A47G G53C, the self-cleavage was found to be 1.19.
A47G G53A: the self-cleavage stood at 1.18.
Then A47G U66C, with 0.35.
In the case of A47G U66A, the self-cleavage worked out at 0.45.
For the variant A47G U66G, the self-cleavage came to 0.27.
For A47G U58G, the self-cleavage turned out to be 0.29.
With A47G U58C, the self-cleavage was found to be 1.1.
Then A47G U58A, with 0.57; and A47U A64U, with 0.26.
Turning to A47U A64G, the self-cleavage stood at 0.37.
The result for U48C A56C reads 0.33.
U48C A56G: the self-cleavage amounted to 0.38.
In the case of U48C A56U, the self-cleavage came out at 0.38.
Turning to A47C U72A, the self-cleavage was 0.26.
In the case of U48C U60G, the self-cleavage worked out at 0.33.
U48C U60C: the self-cleavage is 0.26.
As to U48C U60A, the self-cleavage came out at 0.26.
On to A47C U60A, for which the self-cleavage was found to be 0.15.
A47G U76G: the self-cleavage turned out to be 1.16.
The result for A47G U76C reads 1.04.
For the variant A47G U76A, the self-cleavage is 0.98.
Turning to A47G U48C, the self-cleavage turned out to be 0.31.
Consider A47G U48G, for which the self-cleavage came out at 0.26.
For the variant A47G U48A, the self-cleavage stood at 0.23.
Then U48C U74A, with 0.88; and U48C U74G, with 1.02.
The result for U48C U74C reads 1.02; that for U48A U76A, 0.5.
With U48A U76C, the self-cleavage was 0.67.
The result for U48C C81U reads 1.
Take U48A U60G: the self-cleavage is 0.19.
With U48A U60A, the self-cleavage turned out to be 0.31.
As to U48A U60C, the self-cleavage is 0.14.
Then U48C G63A, with 0.64.
On to U48C G63U, for which the self-cleavage is 0.57.
For the variant U48C G63C, the self-cleavage was 0.47.
U48A C59A: the self-cleavage came to 0.44.
Regarding U48C U58G, the self-cleavage was 0.25.
Turning to U48C U58C, the self-cleavage stood at 0.34.
The result for U48C U58A reads 0.23.
Then A47G G52A, with 1.25; and A47G G70A, with 0.77; and A47G C50U, with 0.8.
Turning to A47G C50A, the self-cleavage is 0.59.
With A47U C79U, the self-cleavage was 0.52.
Turning to U48A C79G, the self-cleavage is 0.73.
Regarding U48A U72A, the self-cleavage turned out to be 0.22.
U48A U72G: the self-cleavage worked out at 0.58.
In the case of U48A U72C, the self-cleavage came out at 0.45.
Consider A47C A77G, for which the self-cleavage stood at 0.34.
The result for U48G G53C reads 0.55; that for U48C G73U, 0.95.
U48C G73C: the self-cleavage was 1.23.
The result for U48C G55C reads 0.36.
Turning to U48C G55A, the self-cleavage was found to be 0.32.
Take A47G G63A: the self-cleavage is 0.88.
Then A47G G63C, with 0.93.
With U48C A64C, the self-cleavage was found to be 0.18.
As to U48C A64U, the self-cleavage stood at 0.27.
Regarding U48C A64G, the self-cleavage is 0.41.
As to U48C A75C, the self-cleavage is 1.07.
The result for U48C A75G reads 0.43.
As to U48C A75U, the self-cleavage is 0.71.
Turning to U48C U69C, the self-cleavage was 0.32.
Take U48C U69A: the self-cleavage is 0.37.
The result for U48C U69G reads 0.36; that for U48A U80A, 0.87; that for U48A U80C, 0.57.
Then U48G U51C, with 0.53.
Then U48A U58A, with 0.5.
For U48A U58C, the self-cleavage was determined as 0.29.
For the variant U48A U58G, the self-cleavage amounted to 0.18.
Consider U48C C50U, for which the self-cleavage amounted to 0.54.
For the variant U48C C50A, the self-cleavage amounted to 0.25.
For U48C U51A, the self-cleavage was determined as 0.42.
The result for U48C U51G reads 0.33; that for U48C U51C, 0.49.
A47U A75G: the self-cleavage amounted to 0.38.
Take A47U A75U: the self-cleavage was found to be 1.
Turning to A47G A56G, the self-cleavage is 0.71.
The result for A47G A56C reads 0.95; that for A47G A56U, 0.45; that for A47U U48C, 0.26.
Then A47U U48G, with 0.18; and U48G A64U, with 0.17.
Then U48G A64G, with 0.45.
For A47C A64U, the self-cleavage is 0.45.
Consider A47C A64G, for which the self-cleavage is 0.26.
Consider A47G C81U, for which the self-cleavage came to 1.04.
U48C G52C: the self-cleavage was determined as 0.42.
As for U48C G52U, the self-cleavage was 0.84.
Then U48C G52A, with 0.87; and A47U C81A, with 1.13; and U48G A57C, with 1.11.
As for U48G A57G, the self-cleavage turned out to be 0.4.
The result for U48G A57U reads 1.07; that for U48A A75G, 0.32.
Consider U48A A75U, for which the self-cleavage worked out at 0.61.
As for A47G A77U, the self-cleavage was found to be 1.06.
Consider A47G A77G, for which the self-cleavage was 1.09.
On to U48G U67A, for which the self-cleavage stood at 0.38.
Regarding U48A U78A, the self-cleavage turned out to be 0.42.
U48A U78C: the self-cleavage was found to be 0.35.
On to U48A U69A, for which the self-cleavage turned out to be 0.18.
For U48A U69G, the self-cleavage came to 0.34.
Then U48A U69C, with 0.44.
For A47U U60C, the self-cleavage was determined as 0.23.
With A47U U60G, the self-cleavage was 0.29.
Turning to A47U U60A, the self-cleavage came out at 0.21.
As for A47U A77G, the self-cleavage was 0.37.
Consider A47U A77U, for which the self-cleavage turned out to be 0.71.
Regarding A47U U51A, the self-cleavage was determined as 0.4.
For the variant A47U U51G, the self-cleavage turned out to be 0.47.
On to A47U U51C, for which the self-cleavage turned out to be 0.43.
Then A47U G55U, with 0.26.
For U48G U66C, the self-cleavage worked out at 0.45.
For G46U U69C, the self-cleavage turned out to be 0.53.
In the case of G46U U69A, the self-cleavage was 0.22.
As for U48A A77G, the self-cleavage turned out to be 0.54.
In the case of A47G U54C, the self-cleavage worked out at 1.01.
As for A47G U54A, the self-cleavage came out at 1.08.
With U48G U54C, the self-cleavage was found to be 0.19.

The values are drawn from the RNAGym collection of RNA variant scans (doi:10.1093/nar/gkz1192).
